Experimental data published in the supplement of paper PMC9233669.
This sample holds only a part of the variants without activity.

Test system: biotinyl-Phe-oxazolone
Assay: self-aminoacylation, catalytic enhancement (BFO) (fold over background); higher = more active; k-Seq, kA / k0A0; sequences stand for … in GGGAAUGGAUCCACAUCUACGAAUUC…UUCACUGCAGACUUGACGAAGCUG
Outline: (§1)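 Each biotinyl-aminoacyl-oxazolone, at 2–1250 μM, was incubated with mutagenized RNA pools (0.43 μM) carrying a 21-nt variable region. The 50 μL reactions contained HEPES/NaCl/KCl/MgCl2/CaCl2 buffer with 5% acetonitrile at pH 6.9–7.0 and ran for 90 minutes at room temperature. After streptavidin capture, RNA was measured by qPCR in triplicate and by Illumina sequencing, and catalytic enhancement was calculated as median kA over the uncatalyzed rate from a pseudo-first-order fit of per-sequence fraction reacted.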

| Sequence | self-aminoacylation |
| --- | --- |
| AAGAUGGCUAAUAGUCGCAAG [Fam3.1 aminoacylation ribozyme variant] | 2.14 |
| AAGCUUACUAAUAGUCGCAAG [Fam3.1 aminoacylation ribozyme variant] | 3.02 |
| AAGCUUGCUAAUAAUCGCAAG [Fam3.1 aminoacylation ribozyme variant] | 2.2 |
| AAGCUUGCUAAUAGUCCCAAG [Fam3.1 aminoacylation ribozyme variant] | 3.57 |
| AAGGUUGCUAAUAGUCCCAAG [Fam3.1 aminoacylation ribozyme variant] | 2.86 |
| AAGGUUGCUACUAGUCGCAAG [Fam3.1 aminoacylation ribozyme variant] | 4 |
| AAGUAUGCUAAGAGUCGCAAG [Fam3.1 aminoacylation ribozyme variant] | 4.08 |
| AAGUAUGCUAAUAGUCGCUAG [Fam3.1 aminoacylation ribozyme variant] | 2.24 |
| AAGUCUCCUAAUAGUCGCAAG [Fam3.1 aminoacylation ribozyme variant] | 3.11 |
| AAGUCUGCUGAUAGUCGCAAG [Fam3.1 aminoacylation ribozyme variant] | 3.91 |
| AAGUUAGCGAAUAGUCGCAAG [Fam3.1 aminoacylation ribozyme variant] | 2.1 |
| AAGUUAGCUAAUUGUCGCAAG [Fam3.1 aminoacylation ribozyme variant] | 2.54 |
| AAGUUCGCUAGUAGUCGCAAG [Fam3.1 aminoacylation ribozyme variant] | 4.51 |
| AAGUUUAAUAAUAGUCGCAAG [Fam3.1 aminoacylation ribozyme variant] | 2.22 |
| AAGUUUACUAAUAGUCGCACG [Fam3.1 aminoacylation ribozyme variant] | 2.22 |
| AAGUUUACUAAUAGUCGUAAG [Fam3.1 aminoacylation ribozyme variant] | 2.3 |
| AAGUUUCCAAAUAGUCGCAAG [Fam3.1 aminoacylation ribozyme variant] | 2.83 |
| AAGUUUCCUAAUAGUCUCAAG [Fam3.1 aminoacylation ribozyme variant] | 2.15 |
| AAGUUUGCGCAUAGUCGCAAG [Fam3.1 aminoacylation ribozyme variant] | 2.97 |
| AAGUUUGCUAAAAGUCGCAUG [Fam3.1 aminoacylation ribozyme variant] | 2.71 |
| AAGUUUGCUAACAGUCGCAGG [Fam3.1 aminoacylation ribozyme variant] | 3.44 |
| AAGUUUGCUAAUACUCGCGAG [Fam3.1 aminoacylation ribozyme variant] | 5.73 |
| AAGUUUGCUAAUGGCCGCAAG [Fam3.1 aminoacylation ribozyme variant] | 4.21 |
| AAGUUUGCUCACAGUCGCAAG [Fam3.1 aminoacylation ribozyme variant] | 2.76 |

| Sequence | self-aminoacylation |
| --- | --- |
| AAGUUUGCUCAUAGUCGCAGG [Fam3.1 aminoacylation ribozyme variant] | 2.92 |
| AAGUUUGGUAAAAGUCGCAAG [Fam3.1 aminoacylation ribozyme variant] | 2.32 |
| AAGUUUUCUAAUAGCCGCAAG [Fam3.1 aminoacylation ribozyme variant] | 2.19 |
| AAUUUUGCUAAUGGUCGCAAG [Fam3.1 aminoacylation ribozyme variant] | 3.61 |
| ACACACUUCAAGCAAUCGAUC [Fam1B.1 aminoacylation ribozyme variant] | 2.02 |
| ACGUUAGCUAAUAGUCGCAAG [Fam3.1 aminoacylation ribozyme variant] | 3.08 |
| ACUCACCUAGGUCAUCGUGUG [Fam2.2 aminoacylation ribozyme variant] | 4.06 |
| AGGUUUGUUAAUAGUCGCAAG [Fam3.1 aminoacylation ribozyme variant] | 3.87 |
| AGUCACCUAGGUCAUCGUGUG [Fam2.2 aminoacylation ribozyme variant] | 7.83 |
| AUGUUUGCUAAUAGUCGGAAG [Fam3.1 aminoacylation ribozyme variant] | 5.76 |
| AUUACCCUGGCCAUCGUGUGA [Fam2.1 aminoacylation ribozyme variant] | 6.7 |
| AUUACCCUGGUCAUCGAGAGG [Fam2.1 aminoacylation ribozyme variant] | 2.47 |
| AUUACCCUGGUCAUCGUGUGU [Fam2.1 aminoacylation ribozyme variant] | 2.45 |
| AUUACCCUGGUCGUCGUGUGA [Fam2.1 aminoacylation ribozyme variant] | 9.58 |
| AUUACCCUGGUGAUCGUGUGA [Fam2.1 aminoacylation ribozyme variant] | 5.71 |
| AUUCACCUAGGUCAUCCGGUC [Fam2.2 aminoacylation ribozyme variant] | 4.67 |
| AUUCACCUAGGUCAUCCGGUU [Fam2.2 aminoacylation ribozyme variant] | 9.74 |
| AUUCACCUAGGUCGUCGUGUG [Fam2.2 aminoacylation ribozyme variant] | 3.62 |
| AUUCACCUAGGUCGUCUGGUG [Fam2.2 aminoacylation ribozyme variant] | 5.84 |
| AUUCACCUAGGUGAGCGGGUG [Fam2.2 aminoacylation ribozyme variant] | 7.25 |
| AUUCACUUAGGUCGUCGGGUG [Fam2.2 aminoacylation ribozyme variant] | 4.92 |
| AUUCUCCUAGGUCAUCGGGUC [Fam2.2 aminoacylation ribozyme variant] | 4.09 |
| AUUUCCCUGGUCAUCGAGUUA [Fam2.1 aminoacylation ribozyme variant] | 2.12 |
| CAACACUUCAAGCAAUCGGAC [Fam1B.1 aminoacylation ribozyme variant] | 2.37 |

| Sequence | self-aminoacylation |
| --- | --- |
| CAACUUCAAACAAUCGAUCUG [Fam1A.1 aminoacylation ribozyme variant] | 3.33 |
| CAACUUUAAACAAUCGGUCUG [Fam1A.1 aminoacylation ribozyme variant] | 2.09 |
| CAGUUUGCUAAUAGUCGCUAG [Fam3.1 aminoacylation ribozyme variant] | 2.2 |
| CAGUUUGCUCAUAGUCGCAAG [Fam3.1 aminoacylation ribozyme variant] | 2.06 |
| CCACACUUCAAACAAUCGAUC [Fam1B.1 aminoacylation ribozyme variant] | 2.59 |
| CCACACUUCAGGCAAUCCGUC [Fam1B.1 aminoacylation ribozyme variant] | 2.08 |
| CCACAUUUCAAGAAAUCGGUC [Fam1B.1 aminoacylation ribozyme variant] | 2.09 |
| CCACAUUUCAAGCAAUCGGUC [Fam1B.1 aminoacylation ribozyme variant] | 3.26 |
| CCACGCAUCAAGCAAUCGGUC [Fam1B.1 aminoacylation ribozyme variant] | 3.83 |
| CGACACUUCAGGCAAUCGGUC [Fam1B.1 aminoacylation ribozyme variant] | 2.04 |
| CUACAUCAAACAAUGGGUCUG [Fam1A.1 aminoacylation ribozyme variant] | 2.95 |
| CUACUGCAAACAGUCGGUCUG [Fam1A.1 aminoacylation ribozyme variant] | 2.04 |
| CUACUGCAAUCAAUCGGUCUG [Fam1A.1 aminoacylation ribozyme variant] | 2.9 |
| CUACUUCAAAAACUCGGUCUG [Fam1A.1 aminoacylation ribozyme variant] | 2.19 |
| CUACUUCAAACACUCGGUCGG [Fam1A.1 aminoacylation ribozyme variant] | 5.02 |
| CUACUUCAGACAAUCGGGCUG [Fam1A.1 aminoacylation ribozyme variant] | 3.52 |
| CUACUUCCAACGAUCGGUCUG [Fam1A.1 aminoacylation ribozyme variant] | 3.05 |
| CUAGUUCAAACAAUCGGUAUG [Fam1A.1 aminoacylation ribozyme variant] | 3.27 |
| CUCCUUCAAACAGUCGGUCUG [Fam1A.1 aminoacylation ribozyme variant] | 3.98 |
| CUGCUUCAAACAAUCCGUCUG [Fam1A.1 aminoacylation ribozyme variant] | 2.71 |
| GAGUUUGCUAAUAGUAGCAAG [Fam3.1 aminoacylation ribozyme variant] | 3.32 |
| GCACACUUCAAGCAAACGGUC [Fam1B.1 aminoacylation ribozyme variant] | 2.05 |
| GUACUGCAAACAAUCGGUCUG [Fam1A.1 aminoacylation ribozyme variant] | 3.7 |
| GUACUUCGAACAAUCGGUCUG [Fam1A.1 aminoacylation ribozyme variant] | 5.74 |

Test system: biotinyl-Trp-oxazolone
Assay: self-aminoacylation, catalytic enhancement (BWO) (fold over background); higher = more active; k-Seq, kA / k0A0; sequences stand for … in GGGAAUGGAUCCACAUCUACGAAUUC…UUCACUGCAGACUUGACGAAGCUG
Outline: as §1

| Sequence | self-aminoacylation |
| --- | --- |
| AAGUAUGCUAAUAGUCGCCAG [Fam3.1 aminoacylation ribozyme variant] | 3.29 |
| AAGUUGGCUAAUAGUCGCGAG [Fam3.1 aminoacylation ribozyme variant] | 3.96 |
| AAGUUUGCUAAAAGUCGCCAG [Fam3.1 aminoacylation ribozyme variant] | 2.25 |
| AAGUUUGCUAAUAUUCCCAAG [Fam3.1 aminoacylation ribozyme variant] | 2.1 |
| AAUUUUGCGAAUAGUCGCAAG [Fam3.1 aminoacylation ribozyme variant] | 2 |
